Test results taken from PMC7840522, “Ca14-3-3 Interacts With CaWRKY58 to Positively Modulate Pepper Response to Low-Phosphorus Starvation”.

Legend:
[1] = biological target: Ca14-3-3-GFP (pepper (Capsicum annuum)); experiment: MST; 20 nM Ca14-3-3-GFP as target, CaWRKY58-6 × His as ligand serially diluted (1.0E^-10 to 1.0E^-3 mM), 10 min in interaction buffer, Monolith NT.115, 50% IR laser power, ambient temperature
CaWRKY58-6xHis = biological target: T1, CaWRKY58-6xHis (Capsicum annuum, UniProt Q5DJV3 1-378); experiment: EMSA; not stated in the material (EMSA as in cited works; Cy5 probes, Odyssey CLX); conditions: protein: recombinant; tags: 6xHis (pDEST17; text says N-terminal 6xHis); label: Cy5
T1 sequence: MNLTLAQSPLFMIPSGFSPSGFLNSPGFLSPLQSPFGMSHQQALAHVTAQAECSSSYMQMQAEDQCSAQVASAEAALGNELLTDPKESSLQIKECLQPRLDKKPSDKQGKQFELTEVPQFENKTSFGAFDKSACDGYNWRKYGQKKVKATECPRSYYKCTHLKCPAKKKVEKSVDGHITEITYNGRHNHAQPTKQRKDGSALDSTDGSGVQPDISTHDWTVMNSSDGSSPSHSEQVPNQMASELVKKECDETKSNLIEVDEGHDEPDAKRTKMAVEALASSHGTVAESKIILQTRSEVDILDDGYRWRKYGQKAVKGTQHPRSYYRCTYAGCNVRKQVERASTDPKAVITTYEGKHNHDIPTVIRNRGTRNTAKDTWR

## CaWRKY58-6 × His (GFP fusion protein)
[1]
  Kd: 210 nM

B1: mCaPHR1-P (mCaPHR1-Pcy5) (dsDNA)
DNA 1: AAACTATGCTCCTACATCTAAATTT
DNA 2: AAATTTAGATGTAGGAGCATAGTTT
CaWRKY58-6xHis
  binding result: no binding
